# In paper PMC10397247:
# T1: 4H2758-AA
# T1 chain: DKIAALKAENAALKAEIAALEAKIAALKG
# T2: 4H278-AA
# T2 chain: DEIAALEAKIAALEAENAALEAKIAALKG
# T3: 4H775-AA
# T3 chain: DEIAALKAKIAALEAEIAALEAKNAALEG
# T4: 4H87-AA
# T4 chain: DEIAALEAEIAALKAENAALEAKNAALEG
# T5: 4H510-AA
# T5 chain: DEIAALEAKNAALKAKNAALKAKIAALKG
# T6: 4H2512-AA
# T6 chain: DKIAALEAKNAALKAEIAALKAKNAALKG
# T7: 4H2705-AA
# T7 chain: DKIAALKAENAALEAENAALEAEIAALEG
# T8: 4H2187-AA
# T8 chain: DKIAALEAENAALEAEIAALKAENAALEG
# T9: 4H233-AA
# T9 chain: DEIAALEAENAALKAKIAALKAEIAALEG
# T10: 4H816-AA
# T10 chain: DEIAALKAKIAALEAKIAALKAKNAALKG
# T11: 4H2646-AA
# T11 chain: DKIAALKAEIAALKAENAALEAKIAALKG
# T12: 4H3940-AA
# T12 chain: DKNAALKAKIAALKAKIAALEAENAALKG
# T13: 4H3134-AA
# T13 chain: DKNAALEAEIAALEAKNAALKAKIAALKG
# T14: 4H2985-AA
# T14 chain: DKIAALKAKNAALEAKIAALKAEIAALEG
# T15: 4H390-AA
# T15 chain: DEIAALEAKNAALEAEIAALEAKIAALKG
# T16: 4H2873-AA
# T16 chain: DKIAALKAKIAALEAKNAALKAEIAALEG
# T17: 4H3625-AA
# T17 chain: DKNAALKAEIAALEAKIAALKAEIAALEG
# T18: 4H3409-AA
# T18 chain: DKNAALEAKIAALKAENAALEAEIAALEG
# T19: 4H2687-AA
# T19 chain: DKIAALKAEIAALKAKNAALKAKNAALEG
# T20: 4H349-bA
# T20 chain: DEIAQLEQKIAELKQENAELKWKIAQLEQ
# T21: 4H932-bA
# T21 chain: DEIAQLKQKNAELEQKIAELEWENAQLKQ
# T22: 4H3041-bA
# T22 chain: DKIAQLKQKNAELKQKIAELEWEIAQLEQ
# T23: 4H949-bA
# T23 chain: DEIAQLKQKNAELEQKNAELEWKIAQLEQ
# T24: 4H3364-bA
# T24 chain: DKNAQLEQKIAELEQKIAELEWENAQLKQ
# T25: 4H2518-bA
# T25 chain: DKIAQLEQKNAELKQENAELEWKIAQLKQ
# T26: 4H2253-bA
# T26 chain: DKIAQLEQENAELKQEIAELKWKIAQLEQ
# T27: 4H730-bA
# T27 chain: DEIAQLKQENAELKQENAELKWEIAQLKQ
# T28: 4H2859-bA
# T28 chain: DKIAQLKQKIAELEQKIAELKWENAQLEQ
# T29: 4H796-bA
# T29 chain: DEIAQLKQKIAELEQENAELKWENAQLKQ
# T30: 4H2931-bA
# T30 chain: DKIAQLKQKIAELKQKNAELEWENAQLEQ
# T31: 4H2444-bA
# T31 chain: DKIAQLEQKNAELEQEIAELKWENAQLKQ
# T32: 4H56-bA
# T32 chain: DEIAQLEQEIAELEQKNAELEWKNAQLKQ
# T33: 4H235-bA
# T33 chain: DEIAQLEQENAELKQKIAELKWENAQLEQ
# T34: 4H264-bA
# T34 chain: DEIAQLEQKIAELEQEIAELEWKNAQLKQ
# T35: P6bH1
# T35 chain: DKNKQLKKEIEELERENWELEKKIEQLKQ
# T36: 4H3381-bA
# T36 chain: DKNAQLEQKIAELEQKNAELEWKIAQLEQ
# T37: 4H3297-bA
# T37 chain: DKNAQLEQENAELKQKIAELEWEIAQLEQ
# T38: 4H2760-bA
# T38 chain: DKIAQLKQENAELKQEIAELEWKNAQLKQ
# T39: 4H2585-bA
# T39 chain: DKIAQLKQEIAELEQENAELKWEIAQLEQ
# Tests used:
# 4H2758-AA = biological target: T1, 4H2758-AA; assay: two-hybrid library CCmax; conditions: mean of both orientations;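 note: natural log of median RNA to DNA barcode read ratio; higher means stronger binding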
# 4H278-AA = biological target: T2, 4H278-AA; assay: two-hybrid library CCmax; conditions: mean of both orientations;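 note: natural log of median RNA to DNA barcode read ratio; higher means stronger binding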
# 4H775-AA = biological target: T3, 4H775-AA; assay: two-hybrid library CCmax;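 note: natural log of median RNA to DNA barcode read ratio; higher means stronger binding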
# 4H87-AA = biological target: T4, 4H87-AA; assay: two-hybrid library CCmax; conditions: mean of both orientations;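 note: natural log of median RNA to DNA barcode read ratio; higher means stronger binding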
# 4H510-AA = biological target: T5, 4H510-AA; assay: two-hybrid library CCmax; conditions: mean of both orientations;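 note: natural log of median RNA to DNA barcode read ratio; higher means stronger binding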
# 4H2512-AA = biological target: T6, 4H2512-AA; assay: two-hybrid library CCmax; conditions: mean of both orientations;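 note: natural log of median RNA to DNA barcode read ratio; higher means stronger binding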
# 4H2705-AA = biological target: T7, 4H2705-AA; assay: two-hybrid library CCmax; conditions: mean of both orientations
# 4H2187-AA = biological target: T8, 4H2187-AA; assay: two-hybrid library CCmax
# 4H233-AA = biological target: T9, 4H233-AA; assay: two-hybrid library CCmax; conditions: mean of both orientations
# 4H816-AA = biological target: T10, 4H816-AA; assay: two-hybrid library CCmax; conditions: mean of both orientations
# 4H2646-AA = biological target: T11, 4H2646-AA; assay: two-hybrid library CCmax; conditions: mean of both orientations
# 4H3940-AA = biological target: T12, 4H3940-AA; assay: two-hybrid library CCmax; conditions: mean of both orientations
# 4H3134-AA = biological target: T13, 4H3134-AA; assay: two-hybrid library CCmax; conditions: mean of both orientations
# 4H2985-AA = biological target: T14, 4H2985-AA; assay: two-hybrid library CCmax; conditions: mean of both orientations
# 4H390-AA = biological target: T15, 4H390-AA; assay: two-hybrid library CCmax; conditions: mean of both orientations
# 4H2873-AA = biological target: T16, 4H2873-AA; assay: two-hybrid library CCmax; conditions: mean of both orientations
# 4H3625-AA = biological target: T17, 4H3625-AA; assay: two-hybrid library CCmax; conditions: mean of both orientations
# 4H3409-AA = biological target: T18, 4H3409-AA; assay: two-hybrid library CCmax; conditions: mean of both orientations
# 4H2687-AA = biological target: T19, 4H2687-AA; assay: two-hybrid library CCmax; conditions: mean of both orientations
# 4H349-bA = biological target: T20, 4H349-bA; assay: two-hybrid library CCNG1
# 4H932-bA = biological target: T21, 4H932-bA; assay: two-hybrid library CCNG1
# 4H3041-bA = biological target: T22, 4H3041-bA; assay: two-hybrid library CCNG1
# 4H949-bA = biological target: T23, 4H949-bA; assay: two-hybrid library CCNG1
# 4H3364-bA = biological target: T24, 4H3364-bA; assay: two-hybrid library CCNG1
# 4H2518-bA = biological target: T25, 4H2518-bA; assay: two-hybrid library CCNG1
# 4H2253-bA = biological target: T26, 4H2253-bA; assay: two-hybrid library CCNG1
# 4H730-bA = biological target: T27, 4H730-bA; assay: two-hybrid library CCNG1
# 4H2859-bA = biological target: T28, 4H2859-bA; assay: two-hybrid library CCNG1
# 4H796-bA = biological target: T29, 4H796-bA; assay: two-hybrid library CCNG1
# 4H2931-bA = biological target: T30, 4H2931-bA; assay: two-hybrid library CCNG1
# 4H2444-bA = biological target: T31, 4H2444-bA; assay: two-hybrid library CCNG1
# 4H56-bA = biological target: T32, 4H56-bA; assay: two-hybrid library CCNG1
# 4H235-bA = biological target: T33, 4H235-bA; assay: two-hybrid library CCNG1
# 4H264-bA = biological target: T34, 4H264-bA; assay: two-hybrid library CCNG1
# P6bH1 = biological target: T35, P6bH1; assay: two-hybrid library CCNG1
# 4H3381-bA = biological target: T36, 4H3381-bA; assay: two-hybrid library CCNG1
# 4H3297-bA = biological target: T37, 4H3297-bA; assay: two-hybrid library CCNG1
# 4H2760-bA = biological target: T38, 4H2760-bA; assay: two-hybrid library CCNG1
# 4H2585-bA = biological target: T39, 4H2585-bA; assay: two-hybrid library CCNG1
binder,measurement,setting,value
DKIAALEAENAALEAEIAALKAENAALEG [4H2187-AA],interaction score,4H2758-AA,0.853
same,interaction score,4H278-AA,-0.772
same,interaction score,4H775-AA,-1.71
same,interaction score,4H87-AA,-2.2
same,interaction score,4H510-AA,0.192
same,interaction score,4H2512-AA,2.24
same,interaction score,4H2705-AA,-1.68
same,interaction score,4H2187-AA,-0.477
same,interaction score,4H233-AA,-0.428
same,interaction score,4H816-AA,-0.683
same,interaction score,4H2646-AA,-1.38
same,interaction score,4H3940-AA,-1.38
same,interaction score,4H3134-AA,1.47
same,interaction score,4H2985-AA,-0.684
same,interaction score,4H390-AA,0.639
same,interaction score,4H2873-AA,0.406
same,interaction score,4H3625-AA,-1.12
same,interaction score,4H3409-AA,-1.46
same,interaction score,4H2687-AA,-0.754
DKIAQLEQENAELKQEIAELKWKIAQLEQ [4H2253-bA],interaction score,4H349-bA,-0.459
same,interaction score,4H932-bA,-0.529
same,interaction score,4H3041-bA,0.651
same,interaction score,4H949-bA,-0.968
same,interaction score,4H3364-bA,-0.504
same,interaction score,4H2518-bA,0.247
same,interaction score,4H2253-bA,1.28
same,interaction score,4H730-bA,-0.707
same,interaction score,4H2859-bA,-0.839
same,interaction score,4H796-bA,-1.65
same,interaction score,4H2931-bA,-0.566
same,interaction score,4H2444-bA,0.026
same,interaction score,4H56-bA,-0.0723
same,interaction score,4H235-bA,0.641
same,interaction score,4H264-bA,-0.996
same,interaction score,P6bH1,-1.05
same,interaction score,4H3381-bA,-0.743
same,interaction score,4H3297-bA,0.145
same,interaction score,4H2760-bA,0.778
same,interaction score,4H2585-bA,-0.557
